Substitutions are numbered along the chain they refer to.
Molecular target: chimeric OX40 construct 1549: Human OX40 with mouse domains 1A and 4B and region non-annotated extracellular region (aa 30-65 and aa 127-214) (human; mouse) (UniProt P47741)
Test: flow cytometry, transfected 293-F cells

B1: anti-OX40 antibody 1170/1171 (antibody, V domains shown)
VH: EVQLLESGGGLVQPGGSLRLSCAASGFTFGGYYMSWVRQAPGKGLEWVSYIPGSGGSTYYADSVKGRFTISRDNSKNTLYLQMNSLRAEDTAVYYCARYDYYWMDYWGQGTLVTVSS
VL: DIQMTQSPSSLSASVGDRVTITCRASQSISSYLNWYQQKPGKAPKLLIYAASSLQSGVPSRFSGSGSGTDFTLTISSLQPEDFATYYCQQGHGSYPHTFGQGTKLEIK
**Q.** With B1 as the binder, how does the relative MFI compared to isotype control read?
**A.** 12.1

B2: anti-OX40 antibody 1524/1525 (antibody, V domains shown)
VH: EVQLLESGGGLVQPGGSLRLSCAASGFTFGSYYMGWVRQAPGKGLEWVSSIGSYYGYTYYADSVKGRFTISRDNSKNTLYLQMNSLRAEDTAVYYCARHDYGALDYWGQGTLVTVSS
VL: B1 VL with G91Y, H92G, G93P, Y95G, P96L, H97F
**Q.** For B2, which relative MFI compared to isotype control is on record?
**A.** 11.2

B3: anti-OX40 antibody 1526/1527 (antibody, V domains shown)
VH: EVQLLESGGGLVQPGGSLRLSCAASGFTFSGYSMYWVRQAPGKGLEWVSGIGYSGYGTYYADSVKGRFTISRDNSKNTLYLQMNSLRAEDTAVYYCARYYFHDYAAYSLDYWGQGTLVTVSS
VL: B1 VL with G91Y, H92G, G93S, S94D, Y95S, P96L, H97L
**Q.** For B3, which relative MFI compared to isotype control is on record?
**A.** 8.5

B4: anti-OX40 antibody 1482/1483 (antibody, V domains shown)
VH: EVQLLESGGGLVQPGGSLRLSCAASGFTFSSYAMSWVRQAPGKGLEWVSYISYYSGYTYYADSVKGRFTISRDNSKNTLYLQMNSLRAEDTAVYYCARGYGYLDYWGQGTLVTVSS
VL: DIQMTQSPSSLSASVGDRVTITCRASQSISSYLNWYQQKPGKAPKLLIYAASSLQSGVPSRFSGSGSGTDFTLTISSLQPEDFATYYCQQYGSLLTFGQGTKLEIK
**Q.** For B4, which relative MFI compared to isotype control is on record?
**A.** 8.7

B5: anti-OX40 antibody 1514/1515 (antibody, V domains shown)
VH: EVQLLESGGGLVQPGGSLRLSCAASGFTFGYYYMSWVRQAPGKGLEWVSGISSYGSYTYYADSVKGRFTISRDNSKNTLYLQMNSLRAEDTAVYYCARSGYSNWANSFDYWGQGTLVTVSS
VL: DIQMTQSPSSLSASVGDRVTITCRASQSISSYLNWYQQKPGKAPKLLIYAASSLQSGVPSRFSGSGSGTDFTLTISSLQPEDFATYYCQQGDYTLFTFGQGTKLEIK
**Q.** Which relative MFI compared to isotype control does the source give for B5 here?
**A.** 10.6

B6: anti-OX40 antibody 1166/1167 (antibody, V domains shown)
VH: B1 VH with Y50A, P52S, Y102A, W103S
VL: B1 VL with G91Y, H92Y, G93W, S94Y, Y95G, P96L, H97S
**Q.** How did the relative MFI compared to isotype control turn out when B6 was run?
**A.** 11.3

Source: US20200048358A1
